From article PMC10138814

Assays:
[1] = target: His6-SUMO-LaM8-LaM4 (llama); test: BLI; His-SUMO-tandem nanobody loaded on Ni-NTA biosensors; mCherry or DsRed in solution; 20 mM HEPES pH 7.4, 150 mM NaCl, 0.005% Tween-20; association 600 s, dissociation 600 s; 2:1 heterogeneous ligand fit; DsRed concentration calculated as a monomer
[2] = target: His6-SUMO-LaM1-LaM8 (llama); test: as above

Sequence of DsRed (Q9U6Y8 whole entry): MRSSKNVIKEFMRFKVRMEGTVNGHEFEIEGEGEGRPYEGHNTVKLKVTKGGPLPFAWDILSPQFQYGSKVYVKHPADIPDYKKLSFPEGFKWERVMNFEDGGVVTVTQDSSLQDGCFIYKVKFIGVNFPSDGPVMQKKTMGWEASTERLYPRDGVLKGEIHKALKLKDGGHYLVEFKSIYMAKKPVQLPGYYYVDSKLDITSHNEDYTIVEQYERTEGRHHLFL

DsRed (from UniProt Q9U6Y8 1-225) (natural protein)
KD2 [1]: 4.12 nM | KD (site 1 of the 2:1 heterogeneous ligand fit) [1]: 2.64 nM | kdis1 [1]: 0.000232 s⁻¹ | kdis2 [1]: 8.2e-05 s⁻¹ | kon2 [1]: 19900 M⁻¹ s⁻¹ | kon (site 1 of the 2:1 heterogeneous ligand fit) [1]: 88100 M⁻¹ s⁻¹

mCherry
KD2 [2]: < 1 pM | KD (site 1 of the 2:1 heterogeneous ligand fit) [2]: 1.87 nM | kdis1 [2]: 0.000552 s⁻¹ | kdis2 [2]: < 1e-07 s⁻¹ | kon2 [2]: 46700 M⁻¹ s⁻¹ | kon (site 1 of the 2:1 heterogeneous ligand fit) [2]: 296000 M⁻¹ s⁻¹ | KD2 [1]: 1.29 nM | KD (site 1 of the 2:1 heterogeneous ligand fit) [1]: 1.38 nM | kdis1 [1]: 0.000239 s⁻¹ | kdis2 [1]: 6.51e-05 s⁻¹ | kon2 [1]: 50600 M⁻¹ s⁻¹ | kon (site 1 of the 2:1 heterogeneous ligand fit) [1]: 173000 M⁻¹ s⁻¹
